# Patent US20200010567A1 (NEURIMMUNE, published 2020)
# T1: GA2: H-(GA)2HHHHHH-NH2
# T1 peptide: H-GAGAHHHHHH-NH2
# T2: PR4: H-(PR)4HHHHHH-NH2
# T2 peptide: H-PRPRPRPRHHHHHH-NH2
# T3: PR5: H-(PR)5HHHHHH-NH2
# T3 peptide: H-PRPRPRPRPRHHHHHH-NH2
# T4: PR3: H-(PR)3HHHHHH-NH2
# T4 peptide: H-PRPRPRHHHHHH-NH2
# T5: PR2: H-(PR)2HHHHHH-NH2
# T5 peptide: H-PRPRHHHHHH-NH2
# T6: (PR)15: H-C(PR)15-OH
# T6 construct: synthetic, not coupled to BSA; also called poly-PR DPR protein peptide
# T6 peptide: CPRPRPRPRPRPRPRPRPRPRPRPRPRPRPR
# T7: PR10: H-(PR)10HHHHHH-NH2 (C-terminal amide)
# T7 peptide: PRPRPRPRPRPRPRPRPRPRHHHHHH
# T8: (GR)15: H-C(GR)15-OH
# T8 construct: synthetic, not coupled to BSA; also called poly-GR DPR protein peptide
# T8 peptide: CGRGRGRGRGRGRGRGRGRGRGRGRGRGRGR
# Columns and labels:
# [1] = biological target: T1, GA2: H-(GA)2HHHHHH-NH2; assay: indirect ELISA, His-tagged peptide coated at 50 ug/ml, antibody titrated [also D00024 FIG. 7F]
# Source text: In brief, dipeptide repeat proteins were synthesized and purified by Schafer-N (Copenhagen, Denmark): GA₂₀: H-(GA)₂₀HHHHHH-NH₂; GA₁₀: H-(GA)₁₀HHHHHH-NH₂; GA₆: H-(GA)₆HHHHHH-NH₂; GA₅: H-(GA)₅HHHHHH-NH₂; GA₄: H-(GA)₄HHHHHH-NH₂; GA₃: H-(GA)₃HHHHHH-NH₂; GA₂: H-(GA)₂HHHHHH-NH₂; GP₂₀: H-(GP)₂₀HHHHHH-NH₂; GP₁₀: H-(GP)₁₀HHHHHH-NH₂; GP₆: H-(GP)₆HHHHHH-NH₂; GP₅: H-(GP)₅HHHHHH-NH₂; GP₄: H-(GP)₄HHHHHH-NH₂; GP₃: H-(GP)₃HHHHHH-NH₂; GP₂: H-(GP)₂HHHHHH-NH₂. GR₂₀: H-(GR)₂₀HHHHHH-NH₂; GR₁₀: H-(GR)₁₀HHHHHH-NH₂; GR₆: H-(GR)₆HHHHHH-NH₂; GR₅: H-(GR)₅HHHHHH-NH₂; GR₄: H-(GR)₄HHHHHH-NH₂; GR₃: H-(GR)₃HHHHHH-NH₂; GR₂: H-(GR)₂HHHHHH-NH₂; PA₂₀: H-(PA)₂₀HHHHHH-NH₂; PA₁₀: H-(PA)₁₀HHHHHH-NH₂; PA₆: H-(PA)₆HHHHHH-NH₂; PA₅: H-(PA)₅HHHHHH-NH₂; PA₄: H-(PA)₄HHHHHH-NH₂; PA₃: H-(PA)₃HHHHHH-NH₂; PA₂: H-(PA)₂HHHHHH-NH₂; PR₂₀: H-(PR)₂₀HHHHHH-NH₂; PR₁₀: H-(PR)₁₀HHHHHH-NH₂; PR₆: H-(PR)₆HHHHHH-NH₂; PR₅: H-(PR)₅HHHHHH-NH₂; PR₄: H-(PR)₄HHHHHH-NH₂; PR₃: H-(PR)₃HHHHHH-NH₂; PR₂: H-(PR)₂HHHHHH-NH₂. 96-well microplates (Corning Incorporated, Corning, USA) were coated with dipeptide repeat protein peptides at a concentration of 50 μg/ml in coating buffer (15 mM Na₂CO₃, 35 mM NaHCO₃, pH 9.42). Non-specific binding sites were blocked for 1 h at room temperature with PBS/0.1% Tween®-20 containing 2% BSA (Sigma-Aldrich, Buchs, Switzerland). Primary antibodies were diluted to the indicated concentrations and incubated 1 h at room temperature, followed by incubation with a donkey anti-human IgG Fcγ-specific antibody conjugated with HRP (Jackson ImmunoResearch Laboratories, Inc., West Grove, USA). Binding was determined by measurement of HRP activity in a standard colorimetric assay. EC₅₀ values were estimated by non-linear regression using GraphPad Prism software (San Diego, USA).
# [2] = biological target: T2, PR4: H-(PR)4HHHHHH-NH2; assay: indirect ELISA, His-tagged peptide coated at 50 ug/ml, antibody titrated [also D00027 FIG. 7O]
# Experimental: (§1) 96-well microplates (Corning Incorporated, Corning, USA) were coated with dipeptide repeat protein peptides at a concentration of 50 μg/ml in coating buffer (15 mM Na₂CO₃, 35 mM NaHCO₃, pH 9.42). Non-specific binding sites were blocked for 1 h at room temperature with PBS/0.1% Tween®-20 containing 2% BSA (Sigma-Aldrich, Buchs, Switzerland). Primary antibodies were diluted to the indicated concentrations and incubated 1 h at room temperature, followed by incubation with a donkey anti-human IgG Fcγ-specific antibody conjugated with HRP (Jackson ImmunoResearch Laboratories, Inc., West Grove, USA). Binding was determined by measurement of HRP activity in a standard colorimetric assay. EC₅₀ values were estimated by non-linear regression using GraphPad Prism software (San Diego, USA).
# (§2) High affinity binding was detected for poly-GA DPRs harboring 10 or 20 (GA)-repeats, reflected in an EC₅₀ in the subnanomolar or low nanomolar range (FIGS. 7A, 7C-7I).
# [3] = biological target: T3, PR5: H-(PR)5HHHHHH-NH2; assay: as above
# Experimental: as §1, §2
# [4] = biological target: T4, PR3: H-(PR)3HHHHHH-NH2; assay: as above
# Experimental: as §1, §2
# [5] = biological target: T5, PR2: H-(PR)2HHHHHH-NH2; assay: as above
# Experimental: as §1, §2
# [6] = biological target: T6, (PR)15: H-C(PR)15-OH; assay: indirect ELISA, coated uncoupled peptide
# [7] = biological target: T7, PR10: H-(PR)10HHHHHH-NH2; assay: indirect ELISA, coated His-tagged peptide
# How it was run: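 His-tagged dipeptide-repeat peptides coated at 50 μg/ml in carbonate buffer pH 9.42; blocked with 2% BSA in PBS/0.1% Tween-20. Human antibodies titrated, 1 h at room temperature, detected with HRP anti-human IgG Fcγ by colorimetric read-out. EC₅₀ from non-linear regression.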
# [8] = biological target: T8, (GR)15: H-C(GR)15-OH; assay: indirect ELISA, coated uncoupled peptide
binder,measurement,setting,value
"NI-308.15O7 (antibody, V domains shown) VH: QVQLVESGGGVVQPGRSLRLSCAASGFTFSNHAMHWVRQAPGKGLEWVAVISYDGENTYYADSIEGRFTISRDNFKNTLFLQMYSLTADDTAMYFCARGGRRGHFTSYYLDYWGQGTLVTVSS VL: CDIQMTQSPSSLSASVGDRVTITCRASQNIDKYLNWYQQIPGKAPKLLIYAASSLHSGVPSRFSGSGSGTDFSLTISSLQPEDFAIYYCQQSYSSFRTFGQGTKLEIK",binding result,[1],no binding (tested: about 4x10^5 pM (last point))
"NI-308.24E11 (antibody, V domains shown, Recombinant complete human IgG1, kappa) VH: QVQLQESGPGLVKPSETLSLTCTVSTTSLRSYFWSWIRQPPGKGLEWIGYVYYSGSTIYNPSLKNRVTISIDTSKNQFSLNLRSVTAADTAMYFCARGVPAETDARDFPPYYFDHWGQGTLVTVSS VL: CDIQLTQSPSSLSASVGNRITFTCQASQDIRYYLNWYQQKPGKAPKLLIYDVSNLDTGVPPRFSGSGSGTNFTFTISSLQPEDIAVYYCQQYEGLPVTFGGGTKVEIK",binding result,[2],no binding (tested: about 4x10^5 pM (last point))
same,binding result,[3],no binding (tested: about 4x10^5 pM (last point))
same,binding result,[4],no binding (tested: about 4x10^5 pM (last point))
same,binding result,[5],no binding (tested: about 4x10^5 pM (last point))
same,EC50,[6],12.8 nM
same,EC50,[7],31.7 nM
"NI-308.6B11 (antibody, V domains shown, Recombinant complete human IgG1, kappa) VH: EVQLVQSGAEVKRPGASVKVSCKVSGYTLTELSMHWVRQAPGKGLEWMGGFDPEDGETVYAQKFQGRVTMTEDTSTDTAYMELSSLRSEDTALYHCATYGSSWHWNEGNEGSYYFDYWGQGTLVTVSS VL: CDIQMTQSPSSLSASVGDRVTITCQASQDISIYLNWYQQKPGKAPKLLIYDASNLETGVPSRFSGSGSGTDFTFTISGLQPEDVARYYCQQYDDLPITFGQGTRLEIK",EC50,[8],0.94 nM
